B1: chimeric olfactory receptor chimeraIC3-IC4 (receptor)
chain: MNGTEGPNFYVPFSNKTGVVEQKLISEEDLEFMTLSDGNHSGAVFTLLGFSDYPELTIPLFLIFLTIYSITVVGNIGMIVIIRINPKLHIPMYFFLSHLSFVDFCYSSIVAPKMLVNLVTMNRGISFVGCLVQFFFFCTFVVTESFLLGVMAYDRFVAIRNPLLYTVAMSQRLCAMLVLGSYAWGVVCSLILTCSALNLSFYGFNMINHFFCEFSSLLSLSRSDTSVSQLLLFVFATFNEISTLLIILLSYVFREAQKQVKKIDSCERRFLSGPPRPPSPAPSPSPGPPRPADSLANGRSSKRRPSRLVALREQKAFSTCASHLTAITIFHGTILFLYCVPNSKNSRHTVKVASVFYTVVIPMLNPLIYSLRNKDFRKAFQRLLCCARRAACRRRAAHGDRPRASGCLARAGPPPSPGAPSDDDDDDAGATPPARLLEPWAGCNGGTTTVDSDSSLDEPGRQGFSSESKV
B2: chimeric olfactory receptor chimeraIC3 (receptor)
chain: MNGTEGPNFYVPFSNKTGVVEQKLISEEDLEFMTLSDGNHSGAVFTLLGFSDYPELTIPLFLIFLTIYSITVVGNIGMIVIIRINPKLHIPMYFFLSHLSFVDFCYSSIVAPKMLVNLVTMNRGISFVGCLVQFFFFCTFVVTESFLLGVMAYDRFVAIRNPLLYTVAMSQRLCAMLVLGSYAWGVVCSLILTCSALNLSFYGFNMINHFFCEFSSLLSLSRSDTSVSQLLLFVFATFNEISTLLIILLSYVFREAQKQVKKIDSCERRFLSGPPRPPSPAPSPSPGPPRPADSLANGRSSKRRPSRLVALREQKAFSTCASHLTAITIFHGTILFLYCVPNSKNSRHTVKVASVFYTVVIPMLNPLIYSLRNKDVKDTVKKIIGTKVYSS
B3: chimeric olfactory receptor chimera3 (receptor)
chain: MNGTEGPNFYVPFSNKTGVVEQKLISEEDLEFMGAGALALGASEPCNLSSAAPLPDGAATAARLLVLASPPASLLPPASEGSAPLSQQWTAGMGLLLALIVLLIVVGNVLVIVAIAKTPRLQTLTNLTRPMYFFLSHLSFVDFCYSSIVAPKMLVNLVTMNRGISFVGCLVQFFFFCTFVVTESFLLGVMAYDRFVAIRNPLLYTVAMSQRLCAMLVLGSYAWGVVCSLILTCSALNLSFYGFNMINHFFCEFSSLLSLSRSDTSVSQLLLFVFATFNEISTLLIILLSYVLIVVTILKMKSASGRRKAFSTCASHLTAITIFHGTILFLYCVPNSKNSRHTVKVASVFYTVVIPMLNPLIYSLRNKSRDFRKAFQRLLCCARRAACRRRAAHGDRPRASGCLARAGPPPSPGAPSDDDDDDAGATPPARLLEPWAGCNGGTTTVDSDSSLDEPGRQGFSSESKV
B4: Rho-myc-mOREG (mouse olfactory receptor for eugenol with Rho tag and myc epitope tag) (receptor)
chain: MNGTEGPNFYVPFSNKTGVVEQKLISEEDLEFMTLSDGNHSGAVFTLLGFSDYPELTIPLFLIFLTIYSITVVGNIGMIVIIRINPKLHIPMYFFLSHLSFVDFCYSSIVAPKMLVNLVTMNRGISFVGCLVQFFFFCTFVVTESFLLGVMAYDRFVAIRNPLLYTVAMSQRLCAMLVLGSYAWGVVCSLILTCSALNLSFYGFNMINHFFCEFSSLLSLSRSDTSVSQLLLFVFATFNEISTLLIILLSYVLIVVTILKMKSASGRRKAFSTCASHLTAITIFHGTILFLYCVPNSKNSRHTVKVASVFYTVVIPMLNPLIYSLRNKDVKDTVKKIIGTKVYSS
B5: chimeric olfactory receptor chimera1 (receptor)
chain: MNGTEGPNFYVPFSNKTGVVEQKLISEEDLEFMTLSDGNHSGAVFTLLGFSDYPELTIPLFLIFLTIYSITVVGNIGMIVIIRINPKLHIPMYFFLSHLSFVDFCYSSIVAPKMLVNLVTMNRGISFVGCLVQFFFFCTFVVTESFLLGVMAYDRFVAIRNPLLYTVAMSQRLCAMLVLGSYAWGVVCSLILTCSALNLSFYGFNMINHFFCEFSSLLSLSRSDTSVSQLLLFVFATFNEISTLLIILLSYVLIVVTILKMKSASGRRKAFSTCASHLTAITIFHGTILFLYCVPNSKNSRHTVKVASVFYTVVIPMLNPLIYSLRNKDFRKAFQRLLCCARRAACRRRAAHGDRPRASGCLARAGPPPSPGAPSDDDDDDAGATPPARLLEPWAGCNGGTTTVDSDSSLDEPGRQGFSSESKV
B6: Rho-mOREG (mouse olfactory receptor for eugenol with N-terminal Rho tag) (receptor)
chain: MNGTEGPNFYVPFSNKTGVVMTLSDGNHSGAVFTLLGFSDYPELTIPLFLIFLTIYSITVVGNIGMIVIIRINPKLHIPMYFFLSHLSFVDFCYSSIVAPKMLVNLVTMNRGISFVGCLVQFFFFCTFVVTESFLLGVMAYDRFVAIRNPLLYTVAMSQRLCAMLVLGSYAWGVVCSLILTCSALNLSFYGFNMINHFFCEFSSLLSLSRSDTSVSQLLLFVFATFNEISTLLIILLSYVLIVVTILKMKSASGRRKAFSTCASHLTAITIFHGTILFLYCVPNSKNSRHTVKVASVFYTVVIPMLNPLIYSLRNKDVKDTVKKIIGTKVYSS
B7: chimeric olfactory receptor chimeraTM7 (receptor)
chain: MNGTEGPNFYVPFSNKTGVVEQKLISEEDLEFMTLSDGNHSGAVFTLLGFSDYPELTIPLFLIFLTIYSITVVGNIGMIVIIRINPKLHIPMYFFLSHLSFVDFCYSSIVAPKMLVNLVTMNRGISFVGCLVQFFFFCTFVVTESFLLGVMAYDRFVAIRNPLLYTVAMSQRLCAMLVLGSYAWGVVCSLILTCSALNLSFYGFNMINHFFCEFSSLLSLSRSDTSVSQLLLFVFATFNEISTLLIILLSYVLIVVTILKMKSASGRRKAFSTCASHLTAITIFHGTILFLYCVPNSKNSRHTPDRLFVFFNWLGYANSAFNPIIYCRSPDFRKAFQRLLCCARRAACRRRAAHGDRPRASGCLARAGPPPSPGAPSDDDDDDAGATPPARLLEPWAGCNGGTTTVDSDSSLDEPGRQGFSSESKV

Each molecule was assayed against Gαolf (G protein alpha subunit which is specifically expressed on an olfactory epithelium) (mouse, UniProt Q8CGK7) (assay: cell-based or functional assay).

| Molecule | concentration increase value of the cAMP (300 µM eugenol minus 0 µM) |
| --- | --- |
| B1 | 0.004 pmol/microgram |
| B2 | 0.0017 pmol/microgram |
| B3 | 0.0009 pmol/microgram |
| B4 | 0.0109 pmol/microgram |
| B5 | 0.0185 pmol/microgram |
| B6 | 0.0061 pmol/microgram |
| B7 | 0.0056 pmol/microgram |

Each molecule was assayed against Gαolf (G protein alpha subunit which is specifically expressed on an olfactory epithelium) (mouse) (UniProt Q8CGK7) (assay: not given).

| Molecule | concentration of cAMP (EIA, normalised to protein) after isoproterenol |
| --- | --- |
| beta-1 adrenergic receptor (β1AR) | 0.956 pmol/µg |

Reference: patent US20130065244A1, “METHOD FOR PRODUCING cAMP USING [sequence] OLFACTORY RECEPTOR” (published 2013)
